T1: TgCTPS (CTP synthase) (Toxoplasma gondii, UniProt B9Q379)
T1 sequence (B9Q379 1-652): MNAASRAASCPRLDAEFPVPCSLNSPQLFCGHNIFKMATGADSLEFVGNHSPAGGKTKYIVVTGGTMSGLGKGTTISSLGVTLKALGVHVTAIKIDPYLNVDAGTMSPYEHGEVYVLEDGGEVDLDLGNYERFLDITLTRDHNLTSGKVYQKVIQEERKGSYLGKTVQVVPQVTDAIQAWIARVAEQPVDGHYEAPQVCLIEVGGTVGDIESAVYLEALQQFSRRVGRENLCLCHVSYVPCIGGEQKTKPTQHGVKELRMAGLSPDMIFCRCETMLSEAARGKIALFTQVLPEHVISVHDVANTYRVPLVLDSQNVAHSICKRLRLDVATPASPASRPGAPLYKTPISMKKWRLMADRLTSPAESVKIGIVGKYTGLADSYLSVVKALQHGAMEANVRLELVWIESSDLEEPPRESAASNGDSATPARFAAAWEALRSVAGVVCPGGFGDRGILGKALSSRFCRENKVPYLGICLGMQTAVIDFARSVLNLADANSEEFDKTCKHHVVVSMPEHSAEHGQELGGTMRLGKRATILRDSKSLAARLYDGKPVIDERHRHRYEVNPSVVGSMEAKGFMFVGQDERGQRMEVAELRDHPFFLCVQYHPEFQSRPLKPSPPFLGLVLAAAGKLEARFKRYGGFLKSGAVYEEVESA

B1: TgCTPS (CTP synthase) (Toxoplasma gondii) (protein)
chain: T1 sequence (B9Q379 1-652)

Experiments:
TgCTPS (CTP synthase) = molecular target: T1, TgCTPS (CTP synthase); assay: pyruvate kinase/lactate dehydrogenase-coupled assay with recombinant enzyme; assay type: biochemical
[1] = substrate: Nc1ncnc2c1ncn2[C@@H]1O[C@H](COP(=O)(O)OP(=O)(O)OP(=O)(O)O)[C@@H](O)[C@H]1O; assay: steady-state kinetics, coupled enzyme assay (Km); assay type: biochemical, Toxoplasma gondii; conditions: Mg2+; 37.0 °C
[2] = substrate: NC(=O)CC[C@H](N)C(=O)O; assay: steady-state kinetics, coupled enzyme assay (Km); assay type: biochemical, Toxoplasma gondii; conditions: Mg2+ negative cooperativity in the binding of L-glutamine to the active site; 37.0 °C
purified protein = substrate: O=c1ccn([C@@H]2O[C@H](COP(=O)(O)OP(=O)(O)OP(=O)(O)O)[C@@H](O)[C@H]2O)c(=O)[nH]1; assay: purified protein; assay type: biochemical, Toxoplasma gondii; conditions: Mg2+

Row | Molecule | IC50 (TgCTPS (CTP synthase)) | Km [1] | kcat [1] | kcat/Km [1] | Km [2] | kcat [2] | kcat/Km [2] | K0.5 (purified protein)
1 | [N-]=[N+]=CC(=O)CC[C@H](N)C(=O)O [DON, 6-diazo-5-oxo-L-norleucine] | ~40 nM |  |  |  |  |  |  | 
2 | B1 |  | 540 ± 50 µM | 36 s⁻¹ | 66700 M⁻¹ s⁻¹ | 260 ± 40 µM | 29.6 s⁻¹ | 114000 M⁻¹ s⁻¹ | 0.47 ± 0.03 mM

From PMC5874296, “A CTP Synthase Undergoing Stage-Specific Spatial Expression Is Essential for the Survival of the Intracellular Parasite Toxoplasma gondii” (Frontiers in Cellular and Infection Microbiology, 2018)
